In patent US8158376B2, “Bisubstrate fluorescent probe binding to protein kinases” (University of Tartu, priority 2006, dated 2012):
Where two headings read alike, the source gives them in different places.

What was measured:
[1] = biological target: PKA (Homo sapiens, UniProt P17612); assay: Kinase selectivity panel; type: biochemical; settings: inhibitor 1 μM; ATP 20 μM; read-out: residual activity (%) PKA
Summary of the method: (§1)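 At 30° C, activity of this kinase was assayed within a broader panel of 52 enzymes.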

[2] = biological target: MNK1 (Homo sapiens, UniProt Q9BUB5); assay: Kinase selectivity panel; type: biochemical; settings: read-out: residual activity (%) MNK1
Chain of MNK1 (Q9BUB5 whole entry, species assumed): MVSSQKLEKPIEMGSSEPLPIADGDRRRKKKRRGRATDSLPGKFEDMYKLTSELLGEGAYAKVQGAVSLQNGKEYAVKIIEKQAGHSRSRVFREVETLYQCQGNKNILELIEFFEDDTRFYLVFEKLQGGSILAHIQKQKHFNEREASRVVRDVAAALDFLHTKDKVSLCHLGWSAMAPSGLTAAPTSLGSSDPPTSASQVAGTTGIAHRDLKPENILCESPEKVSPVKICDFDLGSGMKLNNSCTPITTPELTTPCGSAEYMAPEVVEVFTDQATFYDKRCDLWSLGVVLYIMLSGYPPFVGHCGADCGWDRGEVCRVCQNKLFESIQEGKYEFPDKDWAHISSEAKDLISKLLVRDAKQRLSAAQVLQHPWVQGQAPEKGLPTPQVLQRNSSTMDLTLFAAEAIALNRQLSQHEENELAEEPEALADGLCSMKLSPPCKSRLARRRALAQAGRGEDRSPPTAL
Summary of the method: as §1

[3] = biological target: ROCK-II (Homo sapiens, UniProt O75116); assay: Kinase selectivity panel; type: biochemical; settings: inhibitor 1 μM; ATP 20 μM; read-out: residual activity (%) ROCK-II
Chain of ROCK-II (O75116 whole entry, species assumed): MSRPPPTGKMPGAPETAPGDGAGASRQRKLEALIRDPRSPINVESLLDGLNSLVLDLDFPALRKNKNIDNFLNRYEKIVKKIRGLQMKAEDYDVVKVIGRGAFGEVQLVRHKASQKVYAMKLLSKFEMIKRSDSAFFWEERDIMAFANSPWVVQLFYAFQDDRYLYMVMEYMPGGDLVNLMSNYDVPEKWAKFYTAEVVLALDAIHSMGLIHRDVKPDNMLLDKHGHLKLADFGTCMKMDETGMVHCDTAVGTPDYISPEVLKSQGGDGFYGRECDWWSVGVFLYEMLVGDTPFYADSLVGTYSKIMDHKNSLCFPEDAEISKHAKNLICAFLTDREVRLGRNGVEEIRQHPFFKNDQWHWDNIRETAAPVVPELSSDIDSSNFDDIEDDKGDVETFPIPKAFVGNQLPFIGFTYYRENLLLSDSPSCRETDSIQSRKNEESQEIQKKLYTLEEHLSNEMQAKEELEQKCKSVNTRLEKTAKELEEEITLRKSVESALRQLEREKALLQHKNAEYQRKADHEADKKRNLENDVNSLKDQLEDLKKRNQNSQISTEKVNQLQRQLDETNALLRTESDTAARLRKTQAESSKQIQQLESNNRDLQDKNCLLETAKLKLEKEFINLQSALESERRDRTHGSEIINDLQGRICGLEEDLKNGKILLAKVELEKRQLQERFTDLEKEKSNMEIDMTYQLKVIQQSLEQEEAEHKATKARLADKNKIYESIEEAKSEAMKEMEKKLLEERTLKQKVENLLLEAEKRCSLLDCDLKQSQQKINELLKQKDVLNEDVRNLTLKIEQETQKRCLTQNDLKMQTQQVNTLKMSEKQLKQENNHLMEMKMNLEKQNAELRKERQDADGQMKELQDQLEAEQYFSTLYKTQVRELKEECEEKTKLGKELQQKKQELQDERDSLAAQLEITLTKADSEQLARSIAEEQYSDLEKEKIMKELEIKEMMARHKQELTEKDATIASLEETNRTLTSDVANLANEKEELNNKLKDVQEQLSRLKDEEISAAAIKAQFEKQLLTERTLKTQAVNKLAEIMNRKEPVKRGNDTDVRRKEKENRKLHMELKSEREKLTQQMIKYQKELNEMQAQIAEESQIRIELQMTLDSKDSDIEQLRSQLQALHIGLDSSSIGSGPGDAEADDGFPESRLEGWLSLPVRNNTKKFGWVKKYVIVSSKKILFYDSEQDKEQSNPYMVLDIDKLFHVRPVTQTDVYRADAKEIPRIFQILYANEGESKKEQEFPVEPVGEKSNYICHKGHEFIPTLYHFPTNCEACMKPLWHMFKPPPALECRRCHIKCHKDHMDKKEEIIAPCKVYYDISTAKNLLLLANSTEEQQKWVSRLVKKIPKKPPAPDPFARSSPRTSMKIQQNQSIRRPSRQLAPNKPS
Summary of the method: as §1

[4] = biological target: CAMK-1 (Homo sapiens, UniProt Q14012); assay: Kinase selectivity panel; type: biochemical; settings: read-out: residual activity (%) CAMK-1
Summary of the method: as §1

[5] = biological target: CSK (Homo sapiens, UniProt P41240); assay: Kinase selectivity panel; type: biochemical; settings: read-out: residual activity (%) CSK
Chain of CSK (P41240 whole entry, species assumed): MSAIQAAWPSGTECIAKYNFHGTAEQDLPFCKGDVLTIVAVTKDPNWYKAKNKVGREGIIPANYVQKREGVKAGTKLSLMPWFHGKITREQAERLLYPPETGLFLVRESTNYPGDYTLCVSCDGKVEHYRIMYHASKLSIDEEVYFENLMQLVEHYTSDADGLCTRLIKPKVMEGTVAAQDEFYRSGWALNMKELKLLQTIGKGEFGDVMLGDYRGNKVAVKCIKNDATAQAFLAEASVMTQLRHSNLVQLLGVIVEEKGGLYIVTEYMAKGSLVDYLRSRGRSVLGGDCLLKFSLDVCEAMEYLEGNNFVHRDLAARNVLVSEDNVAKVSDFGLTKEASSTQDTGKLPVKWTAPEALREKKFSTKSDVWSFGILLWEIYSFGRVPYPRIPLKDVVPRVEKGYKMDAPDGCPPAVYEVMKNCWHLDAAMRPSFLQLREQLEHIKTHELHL
Summary of the method: as §1

[6] = biological target: MSK1 (Homo sapiens, UniProt O75582); assay: Kinase selectivity panel; type: biochemical; settings: inhibitor 1 μM; ATP 20 μM; read-out: residual activity (%) MSK1
Chain of MSK1 (O75582 whole entry, species assumed): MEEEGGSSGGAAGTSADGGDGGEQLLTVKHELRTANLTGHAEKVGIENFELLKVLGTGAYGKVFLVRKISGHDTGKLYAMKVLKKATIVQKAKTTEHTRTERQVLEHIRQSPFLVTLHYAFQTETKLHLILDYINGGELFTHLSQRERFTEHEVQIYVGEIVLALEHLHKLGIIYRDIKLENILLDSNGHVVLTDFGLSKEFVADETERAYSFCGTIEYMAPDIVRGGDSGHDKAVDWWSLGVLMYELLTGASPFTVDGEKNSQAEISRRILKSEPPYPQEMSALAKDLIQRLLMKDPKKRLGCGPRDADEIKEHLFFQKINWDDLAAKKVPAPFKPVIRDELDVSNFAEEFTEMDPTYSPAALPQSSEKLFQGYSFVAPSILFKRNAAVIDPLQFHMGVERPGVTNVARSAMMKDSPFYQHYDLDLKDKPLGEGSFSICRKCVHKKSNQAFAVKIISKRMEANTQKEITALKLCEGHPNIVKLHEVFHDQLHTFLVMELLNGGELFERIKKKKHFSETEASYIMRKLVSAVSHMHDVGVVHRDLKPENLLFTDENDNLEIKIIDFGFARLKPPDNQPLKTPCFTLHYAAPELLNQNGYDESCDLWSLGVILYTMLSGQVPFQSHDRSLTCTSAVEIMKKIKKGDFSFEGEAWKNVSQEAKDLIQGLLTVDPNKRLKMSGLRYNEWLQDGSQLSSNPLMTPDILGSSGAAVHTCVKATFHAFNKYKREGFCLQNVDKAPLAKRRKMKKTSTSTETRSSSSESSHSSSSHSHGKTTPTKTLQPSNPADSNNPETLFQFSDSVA
Summary of the method: as §1

[7] = biological target: PRK2 (Homo sapiens, UniProt Q16513); assay: Kinase selectivity panel, residual activity; type: biochemical
Chain of PRK2 (Q16513 whole entry): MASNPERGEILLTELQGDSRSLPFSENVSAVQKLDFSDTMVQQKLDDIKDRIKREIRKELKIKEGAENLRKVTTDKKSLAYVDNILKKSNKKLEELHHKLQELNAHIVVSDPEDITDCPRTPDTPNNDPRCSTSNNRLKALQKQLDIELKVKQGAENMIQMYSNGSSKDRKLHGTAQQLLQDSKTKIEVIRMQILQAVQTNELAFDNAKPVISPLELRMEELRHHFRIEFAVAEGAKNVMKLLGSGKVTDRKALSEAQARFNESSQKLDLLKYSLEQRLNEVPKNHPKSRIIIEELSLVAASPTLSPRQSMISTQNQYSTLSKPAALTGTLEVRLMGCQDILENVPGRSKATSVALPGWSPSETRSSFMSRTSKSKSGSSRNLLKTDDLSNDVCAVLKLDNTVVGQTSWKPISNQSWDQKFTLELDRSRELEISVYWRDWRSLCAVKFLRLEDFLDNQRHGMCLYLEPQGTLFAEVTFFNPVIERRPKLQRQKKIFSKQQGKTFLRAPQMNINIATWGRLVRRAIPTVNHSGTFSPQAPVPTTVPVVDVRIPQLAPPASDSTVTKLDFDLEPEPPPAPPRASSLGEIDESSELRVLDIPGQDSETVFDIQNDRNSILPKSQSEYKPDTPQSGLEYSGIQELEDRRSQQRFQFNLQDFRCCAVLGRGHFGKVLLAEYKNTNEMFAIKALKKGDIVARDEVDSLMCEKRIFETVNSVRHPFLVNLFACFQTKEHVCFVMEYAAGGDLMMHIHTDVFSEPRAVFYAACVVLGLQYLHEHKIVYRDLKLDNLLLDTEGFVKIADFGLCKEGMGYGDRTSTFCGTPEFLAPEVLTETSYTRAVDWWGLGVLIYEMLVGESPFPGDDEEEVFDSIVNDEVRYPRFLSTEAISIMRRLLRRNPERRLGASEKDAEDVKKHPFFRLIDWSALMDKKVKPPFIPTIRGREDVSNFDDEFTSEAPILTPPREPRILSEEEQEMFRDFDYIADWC
Protocol: (§2) The assay of protein kinases was performed at 30° C. as described previously [Davies et al., Biochem. J. 351 (2000) 95; Murray et al., Biochem. J. 384 (2004) 477]. The results of the testing are expressed as the % of residual activity of the kinase in the presence of the inhibitor at 1 micromolar concentration.

[8] = biological target: PKBb (Homo sapiens, UniProt P31751); assay: Kinase selectivity panel, residual activity; type: biochemical; settings: 1 μM compound, 50 μM ATP, 30° C.
Chain of PKBb (P31751 whole entry): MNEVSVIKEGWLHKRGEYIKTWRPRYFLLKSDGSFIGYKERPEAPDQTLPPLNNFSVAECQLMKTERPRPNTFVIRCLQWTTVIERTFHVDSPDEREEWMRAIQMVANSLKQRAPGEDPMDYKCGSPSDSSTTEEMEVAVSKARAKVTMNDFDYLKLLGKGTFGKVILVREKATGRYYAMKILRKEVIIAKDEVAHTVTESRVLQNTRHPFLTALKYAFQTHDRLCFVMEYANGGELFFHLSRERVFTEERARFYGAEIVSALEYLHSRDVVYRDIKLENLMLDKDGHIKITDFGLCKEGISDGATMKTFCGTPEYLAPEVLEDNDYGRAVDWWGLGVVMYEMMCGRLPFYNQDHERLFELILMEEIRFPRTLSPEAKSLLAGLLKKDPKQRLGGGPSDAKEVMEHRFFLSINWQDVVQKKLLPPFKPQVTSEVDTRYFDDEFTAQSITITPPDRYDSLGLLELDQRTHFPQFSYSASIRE
Protocol: as §2

[9] = biological target: PKBΔph (Homo sapiens, UniProt P31749); assay: Kinase selectivity panel, residual activity; type: biochemical; settings: 1 μM compound, 5 μM ATP, 30° C.
Chain of PKBΔph (P31749 whole entry, stated change not applied): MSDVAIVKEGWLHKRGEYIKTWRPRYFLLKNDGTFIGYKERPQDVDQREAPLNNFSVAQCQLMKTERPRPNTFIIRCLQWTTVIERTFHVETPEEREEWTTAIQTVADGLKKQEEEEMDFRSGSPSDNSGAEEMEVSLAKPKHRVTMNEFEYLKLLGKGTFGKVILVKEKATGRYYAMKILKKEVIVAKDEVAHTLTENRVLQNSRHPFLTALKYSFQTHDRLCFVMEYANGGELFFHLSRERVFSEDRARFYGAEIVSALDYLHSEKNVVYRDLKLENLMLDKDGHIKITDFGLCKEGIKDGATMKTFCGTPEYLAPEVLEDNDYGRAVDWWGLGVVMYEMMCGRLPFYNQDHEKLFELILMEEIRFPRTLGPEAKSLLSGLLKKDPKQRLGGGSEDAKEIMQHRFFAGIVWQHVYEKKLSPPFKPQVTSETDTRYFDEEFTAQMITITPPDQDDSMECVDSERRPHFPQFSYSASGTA
Protocol: as §2

[10] = biological target: T1, cAPK Cα (Homo sapiens, UniProt P17612); assay: Competition: displacement of ARC-TAMRA from complex with cAPK Cα, fluorescence anisotropy, LS 55; type: binding; parameters: purchased Biaffin AG
Protocol: A complex was created between 10 nM of ARC-TAMRA and 10 nM of cAPK Cα in 0.500 ml of buffer (50 mM HEPES, 200 mM NaCl, 0.5 g/l BSA, 5 mM DTT, 0.05% TWEEN 20, MilliQ water; pH 7.4). Different compounds were screened for binding to cAPK Cα against fixed concentrations of ARC-TAMRA and cAPK Cα (FIG. 4). 1-3 μl quantities of various dilutions of the solution of the inhibitor were added to 500 μl solution of ARC-TAMRA complex with the kinase and fluorescence anisotropy was measured after each addition of the […] after 10 min delay time.

[11] = biological target: T1, cAPK Cα; assay: High-throughput displacement of ARC-TAMRA from cAPK Cα, PHERAstar
Protocol: To determine the inhibition constant (Ki), 3-fold serial dilutions of a given inhibitor are performed analogously as for titration experiments. Before the measurement of fluorescence anisotropies the plate is rotated (400 rpm) for 10 minutes at 30° C.

Compound	remaining activity at 1 µM [1]	remaining activity at 1 µM ([2]; inhibitor 1 μM, ATP 50 μM)	remaining activity at 1 µM [3]	remaining activity at 1 µM ([4]; inhibitor 1 μM, ATP 50 μM)	remaining activity at 1 µM ([5]; inhibitor 1 μM, ATP 20 μM)	remaining activity at 1 µM [6]	remaining activity at 1 µM [7]	remaining activity at 1 µM [8]	residual activity [9]	IC50 ([10]; 10 nM ARC-TAMRA, 10 nM cAPK Cα)	Kd ([10]; cAPK Cα displacement, read-out: Kd of inhibitor (characterized with the probe))	Ki ([10]; read-out: Ki (competitive binding))	Ki [11]	remaining activity at 1 µM [2]	remaining activity at 1 µM [4]	remaining activity at 1 µM [5]
N=C(N)NCCC[C@@H](NC(=O)[C@@H](CCCNC(=N)N)NC(=O)[C@@H](CCCNC(=N)N)NC(=O)[C@@H](CCCNC(=N)N)NC(=O)[C@@H](CCCNC(=N)N)NC(=O)[C@@H](CCCNC(=N)N)NC(=O)CCCCCNCCNS(=O)(=O)c1cccc2cnccc12)C(N)=O [Compound 26, H9-Hex(D-Arg)6-NH2]	< 10%	68%	0%	< 10%	70%	1%										
N=C(N)NCCC[C@@H](NC(=O)[C@@H](CCCNC(=N)N)NC(=O)[C@@H](CCCNC(=N)N)NC(=O)[C@@H](CCCNC(=N)N)NC(=O)[C@@H](CCCNC(=N)N)NC(=O)[C@@H](CCCNC(=N)N)NC(=O)CCCCCNC(=O)[C@H]1O[C@@H](n2cnc3c(N)ncnc32)[C@H](O)[C@@H]1O)C(N)=O [Compound 5, AdcAhx(D-Arg)6-NH2]							≤ 3%	≤ 3%	≤ 3%	35 nM	2.5 nM	2.5 nM	1.1 nM	102%	15%	48%
